Measured values reported in US20080085266A1.

Molecular target: ICAM-1 (human) (UniProt P05362)
Test: cell-based or functional assay

ICAM-1 (human), sequence (P05362 28-532): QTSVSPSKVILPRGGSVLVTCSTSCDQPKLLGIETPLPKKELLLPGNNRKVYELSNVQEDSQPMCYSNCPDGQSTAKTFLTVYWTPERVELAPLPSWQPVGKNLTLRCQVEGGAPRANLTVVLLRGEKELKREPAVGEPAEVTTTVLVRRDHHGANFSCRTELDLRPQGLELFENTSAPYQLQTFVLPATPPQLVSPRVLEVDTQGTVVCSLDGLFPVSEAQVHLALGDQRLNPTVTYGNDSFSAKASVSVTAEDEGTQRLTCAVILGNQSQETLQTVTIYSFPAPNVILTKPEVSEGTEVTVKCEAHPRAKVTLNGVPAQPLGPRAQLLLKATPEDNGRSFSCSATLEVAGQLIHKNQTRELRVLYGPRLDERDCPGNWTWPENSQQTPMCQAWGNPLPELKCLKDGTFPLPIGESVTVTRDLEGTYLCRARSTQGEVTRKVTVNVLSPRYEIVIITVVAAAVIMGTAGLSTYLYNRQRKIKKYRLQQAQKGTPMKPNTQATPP

inhibition of tumor lysis by peptide specific CTLs with anti-CD11a (LFA-1) MAb, tumor cells after IFN-gamma exposure: 60 to 86%
Substance: CD11a (LFA-1) (from UniProt P20701 26-1170) (receptor)
